A word on the Km: it is the substrate concentration at which the rate is half of its maximum.

This note sets out measurements from article PMC5725826, “Characterization of UGT716A1 as a Multi-substrate UDP:Flavonoid Glucosyltransferase Gene in Ginkgo biloba” (Frontiers in Plant Science, 2017).

One series concerns the target T1, UGT92K1 (Ginkgo biloba, UniProt A0A2Z2PC79).
T1 construct: gene UGT7
T1 sequence (A0A2Z2PC79 1-496): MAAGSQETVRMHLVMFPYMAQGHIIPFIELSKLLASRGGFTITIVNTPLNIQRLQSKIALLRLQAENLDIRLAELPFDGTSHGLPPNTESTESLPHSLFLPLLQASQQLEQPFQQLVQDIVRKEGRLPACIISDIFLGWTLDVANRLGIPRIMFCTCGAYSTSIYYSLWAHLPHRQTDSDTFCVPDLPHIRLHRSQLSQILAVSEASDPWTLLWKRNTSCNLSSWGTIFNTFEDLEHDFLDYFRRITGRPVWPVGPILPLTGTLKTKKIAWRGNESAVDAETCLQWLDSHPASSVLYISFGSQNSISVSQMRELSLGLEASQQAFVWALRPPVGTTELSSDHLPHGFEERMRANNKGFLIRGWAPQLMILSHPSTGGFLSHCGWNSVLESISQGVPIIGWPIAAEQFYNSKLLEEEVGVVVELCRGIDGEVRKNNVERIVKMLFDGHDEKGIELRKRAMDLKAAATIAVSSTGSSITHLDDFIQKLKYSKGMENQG
The series is described as follows: HPLC glucosylation assay, product identified with authentic standard. The class given is biochemical. The conditions noted are these: 100 μM substrate; 4 mM UDP-glucose; Tris-HCl pH 7.0; 30°C; product genistein 7-O-glucoside.

Substrate in series [1]: O=c1cc(-c2ccc(O)cc2)oc2cc(O)cc(O)c12
The series is described as follows: purified protein. The conditions noted are these: 4 mM UDP-glucose, Tris-HCl pH 7.0, 30°C.

Substrate in series [2]: O=C(O[C@@H]1Cc2c(O)cc(O)cc2O[C@@H]1c1cc(O)c(O)c(O)c1)c1cc(O)c(O)c(O)c1
The series is described as follows: purified protein. Format: biochemical, Ginkgo biloba. The conditions noted are these: 4 mM UDP-glucose, Tris-HCl pH 7.0, 30°C.

Substrate in series [3]: O=C(O[C@@H]1Cc2c(O)cc(O)cc2O[C@H]1c1ccc(O)c(O)c1)c1cc(O)c(O)c(O)c1
The series is described as follows: purified protein. Format: biochemical, Ginkgo biloba. The following applies: 4 mM UDP-glucose, Tris-HCl pH 7.0, 30°C.

Substrate in series [4]: O=c1c(O)c(-c2ccc(O)c(O)c2)oc2cc(O)cc(O)c12
The series is described as follows: purified protein. The class given is biochemical, Ginkgo biloba. The following applies: 4 mM UDP-glucose, Tris-HCl pH 7.0, 30°C.

Substrate in series [5]: O=C(O[C@@H]1Cc2c(O)cc(O)cc2O[C@H]1c1cc(O)c(O)c(O)c1)c1cc(O)c(O)c(O)c1
The series is described as follows: purified protein. The following applies: 4 mM UDP-glucose, Tris-HCl pH 7.0, 30°C. Format: biochemical, Ginkgo biloba.

Substrate in series [6]: O=c1c(-c2ccc(O)cc2)coc2cc(O)cc(O)c12
As to the kind of experiment: purified protein. The following applies: 4 mM UDP-glucose, Tris-HCl pH 7.0, 30°C. Format: biochemical, Ginkgo biloba.

Substrate in series [7]: COC(=O)c1cc(O)c(O)c(O)c1
As to the kind of experiment: purified protein. Format: biochemical, Ginkgo biloba. The following applies: 4 mM UDP-glucose, Tris-HCl pH 7.0, 30°C.

Substrate in series [8]: O=c1cc(-c2ccc(O)c(O)c2)oc2cc(O)cc(O)c12
The series is described as follows: purified protein. The following applies: 4 mM UDP-glucose, Tris-HCl pH 7.0, 30°C. The class given is biochemical, Ginkgo biloba.

On to `O=c1c(-c2ccc(O)cc2)coc2cc(O)cc(O)c12` [genistein], for which the “HPLC glucosylation assay, product identified with authentic standard” value at UGT92K1 was “recombinant UGT92K1 protein only displayed activity toward genistein”.

B1: UGT716A1 (Ginkgo biloba) (protein)
chain: MEMAGGYIMVVPFHGQGHVFPCLELCKQLAARGVAVTIVASRSIRSSLQSIANHDASGLGVRIMELREATSEEQDAHPGPFLTDTLQEPFEEMLNNLAAEAAPLPLCVIGDVMVGWVTTVCDKFHIPRVPFFTSSACSIAFEYALWKHRPLDLKEDEAFAVPGFPESMPIALSDTLHRAPHPPDHHQRNPPPFPRRGHPPPPDRGHPPPFGHGGPPHGPPHPPTGPDSNPRSPPWMNGLNESSGFLVNTCRELEAPFIEYMVKETEKPVWAVGPLLPSSFWEGSITHDSSFRSRKSNIDEKQCLEWLNSKPPASVLYVSFGSEVGPSEEEIRELAYGLEAAQKPFIWVLQAGHHHPHHQEEAEEQDLLPAGFEHRLEGRGLIIRGWAPQLLILSHPSTGGFLSHCGWNSTVESIGHGVPLLAWPIRGDQHYNAKLLVAELKVAAMIHMPKDDGMVRREEIAKGVDVLLGSEHGEKLRERAVSLKLRLASCSGSSQKMLDAFVVHLSSLQKKL
With B1, the Km in the series “purified protein [1]” was 230 µM; in the series “purified protein [2]”, 43 µM; in the series “purified protein [3]”, 14 µM; in the series “purified protein [4]”, 10 µM; in the series “purified protein [5]”, 3.2 µM; in “purified protein [6]”, 310 µM. The Km in the series “purified protein [7]” was found to be 390 µM; in the series “purified protein [8]” it was 28 µM.
